Km, kcat and kcat/Km data for 3 compounds are collected here from publication PMC5337904, “A novel cytochrome P450, CYP3201B1, is involved in (R)‐mandelonitrile biosynthesis in a cyanogenic millipede” (FEBS Open Bio, 2017).

What all share (settings): 50 nM enzyme, 2 mM NADPH, 50 mM potassium phosphate pH 6.5, 35 °C, 5 min, with yeast P450 reductase
One data set has as its target CYP3201B1 (Chamberlinius hualienensis, UniProt A0A1J1DVP9).
Another data set deals with Cc1cccc(CC#N)c1. Description: cells, lysate or membranes.
The next data set relates to Cc1ccccc1CC#N. Description: cells, lysate or membranes.

Where two headings read alike, the source gives them in different places.

Chain of CYP3201B1 (A0A1J1DVP9 1-501 limits assumed): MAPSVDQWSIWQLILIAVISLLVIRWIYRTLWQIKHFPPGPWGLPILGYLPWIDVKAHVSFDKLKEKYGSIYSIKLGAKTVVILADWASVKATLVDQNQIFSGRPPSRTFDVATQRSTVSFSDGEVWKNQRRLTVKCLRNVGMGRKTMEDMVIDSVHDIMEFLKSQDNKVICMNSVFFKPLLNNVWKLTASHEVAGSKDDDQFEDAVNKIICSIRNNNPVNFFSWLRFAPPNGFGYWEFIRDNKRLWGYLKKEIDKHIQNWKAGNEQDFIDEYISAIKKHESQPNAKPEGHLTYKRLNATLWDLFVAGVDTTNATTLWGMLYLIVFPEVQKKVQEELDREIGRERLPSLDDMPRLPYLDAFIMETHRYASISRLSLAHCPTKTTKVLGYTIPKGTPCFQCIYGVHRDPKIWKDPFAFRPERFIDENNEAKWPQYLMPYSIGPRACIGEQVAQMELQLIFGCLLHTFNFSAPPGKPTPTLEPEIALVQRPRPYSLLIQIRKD

As a reminder, the Km is the concentration of substrate that gives half-maximal velocity. Consider `N#CCc1ccccc1` [PAN], for which the Michaelis-Menten constant (Km) on CYP3201B1 (product (R)-mandelonitrile) amounted to 9.2 ± 2.3 µM.

Usually kcat stands for the maximal rate divided by the concentration of active sites. One may read the kcat/Km as the second-order rate constant that governs catalysis at low substrate concentration. For the compound CYP3201B1 (Chamberlinius hualienensis), in the data set with Cc1cccc(CC#N)c1, the Km came out at 6.9 ± 1.3 µM, the kcat was determined as 1.09 ± 0.0433 s⁻¹ and the specificity constant (kcat/Km) stood at 158000 M⁻¹ s⁻¹. In addition, in the data set with Cc1ccccc1CC#N, the Km came out at 6.6 ± 1.6 µM, the kcat was 1.12 ± 0.07 s⁻¹ and the kcat/Km came out at 170000 M⁻¹ s⁻¹.

As to `N#CCc1ccc(O)cc1` [4‐HydroxyPAN], the Michaelis-Menten constant (Km) at CYP3201B1 came out at 15.8 ± 1.2 µM.
